Assays:
[1] = biological target: mouse IgG1 Fc-fused SARS-CoV-2 RBD (SARS-CoV-2, UniProt P0DTC2); test: BLI; settings: both partners purified
SARS-CoV-1 spike = SARS-CoV-1 spike (SARS-CoV-1, reference entry; strain not …, UniProt P59594); test: cell-based or functional assay
[2] = biological target: monomeric human Fc-fused SARS-CoV-2_RBD-SD1 (SARS-CoV-2, Wuhan-Hu-1, UniProt P0DTC2); test: BLI; settings: both partners purified

B1: humVHH_S56A (VHH)
VHH: EVQLVESGGGLVQPGGSLRLSCAASGRTFSEYAMGWFRQAPGKEREFVATISWSGGATYYTDSVKGRFTISRDNAKNTVYLQMNSLRPEDTAVYYCAAAGLGTVVSEWDYDYDYWGQGTLVTVSS
notes: also called humVHH72_S56A; VHH72_h1_S56A
For B1, the koff [1] was 0.019 s⁻¹.

B2: humVHH (VHH)
VHH: EVQLVESGGGLVQPGGSLRLSCAASGRTFSEYAMGWFRQAPGKEREFVATISWSGGSTYYTDSVKGRFTISRDNAKNTVYLQMNSLRPEDTAVYYCAAAGLGTVVSEWDYDYDYWGQGTLVTVSS
notes: also called humanized VHH72; VHH72_h1
Binder B2 has a koff [1] of 0.075 s⁻¹.

B3: humVHH_S56A (VHH)
VHH: EVQLVESGGGLVQPGGSLRLSCAASGRTFSEYAMGWFRQAPGKEREFVATISWSGGATYYTDSVKGRFTISRDNAKNTVYLQMNSLRPEDTAVYYCAAAGLGTVVSEWDYDYDYWGQGTLVTVSS
notes: also called monomeric humanized VHH72 with the S56A substitution
B3 was tested, and the “neutralization of VSV SARS-CoV-1 spike pseudotype virus, potency against humVHH” value (SARS-CoV-1 spike) was 10 fold and the “fold increase in affinity over humVHH” value [2] was about 7 fold.

From PMC9924070 (Science Translational Medicine, 2021)
